Source: the nanobody polyreactivity screen of Harvey et al. (2022)

Test: yeast display, Sf9 membrane polyspecificity reagent, FACS + sequencing; frameworks hold sequencing errors
Procedure, shortened: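 After 36–48 hours of galactose induction, yeast (Saccharomyces cerevisiae BJ5465) displaying a synthetic nanobody library were stained at 4 °C for 1 hour with 10% biotinylated, detergent-solubilized Sf9 membrane reagent. Streptavidin microbeads enriched the stained cells before FACS sorting into low and high (top ~1%) gates on anti-HA and streptavidin fluorescence. Each clone's polyreactivity label reflects its gate of origin.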

| Sequence | polyreactivity (PSR sort gate) |
| --- | --- |
| QVQLVESGGGLVQAGGSLRLSCAASGRTFAYNAMGWYRQAPGKERELVAAISRSGTITYYADSVKGRFTISRDNAKNTVYLQMNSLKPEDTAVYYCNKASTYPSYDYWGQGTQVTVSS | high polyreactivity |
| QVQLVESGGGLVQAGGSLRLSCAASGRIFWSNAMGWYRQAPGKERELVATISSGGRTYYADSVKGRFTISRDNAKNTVYLQMNSLKPEDTAVYYCAAVTFWFWPGMDYWGQGTQVTVSS | low polyreactivity |
| QVQHVESGGGLVQAGGSLRLSCAASGRTFGYNDMGWSRQAHGKERELVATISWGGGSTYYADSVKWRFTISRDNAKNTVYLQMNSLKAEDTAVYYCNKVHFGRRHSYSGAIYGEDYWGLGTQVTVSS | high polyreactivity |
| QVQLEESGGGLVQAGGSLRLSCAASGRIFIRNAMGWYRQAPGKERELVAAISYSGGSTYYADSVKGRFTISRDNAKNTVYLQMNSLKPEDTAVYYCAAGSIRGTSFYYWGQGTQVTVSS | high polyreactivity |
| QVQLVESGGGLVQAGGSLRISCAASGFTFRSYAMGWYRQAPGKERELVAAISWRGGRTYYADSVKGRFTISRDNAKNTVYLQMNSLKPLDTAVYYCATDWYWGSYAPYTTRAHFDYWGQGTQVTVSS | high polyreactivity |
| QVQLVETGGGLVQAGGSLRLRCAPSGSTFSEYAMGWYRQAPGKERELVPAITSGGITNYADSVKGRFTISRDNSKNTVYFKMNSLKPEDTAVYYCNTQDVYGDPVESLVDYDYWGQGTQVTVSS | high polyreactivity |
| QVQLLESGGGLDKAGVRIRLSCASSGIIFAWYAMVWYRQAHRKEMELVAAISWSCGSTYYAYSVKLRFTISRDNAKNTVDLQMNSLTPEDTAVYYCATYPRRQGKYAYWGQGTQVTVSS | high polyreactivity |
| QVQLVESAGGLVQAGGSLRLSCAASGRIFSHYAMGWYRQAPGKERELVAAITSSGGSTSYADSVKGRFTISRDNAKNTVYLQMNSLKPEDTAVYYCAAEDTQVRRSPVRPLEDYWGQGTQVTVSS | low polyreactivity |
| QVQLVESGGGLVQAGGSLRLSCAASGSIFLRNAMGWYRQAPGKERELVAAITYSSGSTYYADSVKGRFTISRDNAKNTVYLQMNSLKPEDTAVYYCAATSRSSRRYYYWGQGTQVTVSS | high polyreactivity |
| QGQLVESGGGLVQAGGSLRLSSAASGSTFARYAMGWYRQAPGKERELVAVIRSGGSTNYADSVKGRFTISRDNAKNTVYLQMNSLKPEDTAGAADLWTLHRWATYGYWGQGTQVTVSS | low polyreactivity |
| QVQLVESGGGLVQGGGSLRLSCAASGRNFKYNTMGWYRQAPGKERDLVAAISLSSGSGGGTRYADSVKGRFTISRDNAKNSVYLQMNSLKPEDSAVYYCAARHRYTNEYDYWGHGTQVTVSS | low polyreactivity |
| QVQLVESGGGLVQAGGSLRLSCAASGSTFNANTMGWYRQAPGKEREFVAAISWTGASTYYADSVKGRFTISRDNAKNTVYLQMNSLKPEDTAVYYCNADYTVADGPYRDGYDYWGQGTQVTVSS | low polyreactivity |
| QVQLVESGGGLVQAGGSLRLSCAASGSIFYYNAMGWYRQAPGKERELVATIRTSGGSTYYADSVKGRFTISRDNAKNTVYLQMNSLKPVDTAVYYCAARDLRKLYSRYPYYYWGQGTQVTVSS | high polyreactivity |
| QVQLVESGGGLVQAGGSLRLSCAASGFIFRRYAMGWYRQAPGKERELVAVIRSSGGSTYYADSVKGRFTISRDNAKNTVYLQMNSLKPEDTAVYYCAAVDARSGGYYWTLRYYYWGQGTQVTVSS | high polyreactivity |
| QFQLVESGGGLVQARGSLRLSCAASGITFPVYAMGWYRQAPGKEREFVASIRFSTGRTYYADSVKGRFTISRDNAKNTVYLQINSLKPEDTAVYYCRGSTQSPYNSWGQGTQVTVSS | high polyreactivity |
| QVQLVESGGGLVQAGGSLRLSCAASGSTFWPYAMGWCRQAPGKERELVAAITWSGGRTYYADSVKGRFTISRDNAKNTVYLQMYSLKPEDTAVYYCAAYYRQGIAPNGFDYWGQGTQVTVSS | high polyreactivity |
| QVQLVESGVGLVQAGGSLRLSCAASGRTLSKNAMGWYRQAPWKERELVATMSSVGRTNYADSVKGRFTISRDNAKNTVYLQMNSLKPEDTAVYYCAARRFRGSYYWGQGTQVTVSS | high polyreactivity |
| QVHLVESGGGLVQAGGSLRLSCAASGSTFDPNAMGWYTQAPGKERELVAAISYTGGRTYYADSVKGRFTISRDKAKNTVYLQMNSLKPEATAVYYCAVLVVGSPTQDEPYVSGVEHDYWGQGTQVTVSS | low polyreactivity |
| QVQLVESGGGLVQAGGSLRLSCAASGFIFGYNAMGWYRQAPGKERELVAAISSSGGSTYYADSVKGRFTISRDNAKNTVYLQMNSLKPEDTAVYYCAAESLTGYAHYDYWGQGTQVTVSS | low polyreactivity |
| QVQLVESGGGLVQAGGSLRLTCAASGSIFSYNVMGWYRQAPGKERELVAVITGSGGSTYYADSVKGRFTISRDNAKNTVYLQMYSLKPEDTAVYYCAATYSGWQWYETYYYWGQGTQVTVSS | low polyreactivity |
| QVQLLESGGGLVQAGGSLRLSCAASGSTFRYYAMGWYRQAPGKERELVAAISKSGGRTYYADSVKGRFTISRDNAKHTVYLQMNSLKPEDTAVYYCAADSKEVRYDYWGQGTQVTVSS | high polyreactivity |
| QFQLVESGGGLVQAGGSLRLSCAASGSIFYYNAMGWYRQAPGKEPELVAAINSGGTTYYADSVKGRFTISRDNAKNTVYVLMNSLKPEDTAVYYCAARTTRRSRYKYDYWGQGTQVSVSS | high polyreactivity |
